In paper doi:10.1101/2024.02.22.581535:

Target: Bio-His-FIKK13 (P. falciparum)
Assay: SPR

B1: FIKK13_4 (peptide)
peptide: YPLRFLSKYHCG
B1 gave a Kd of 17 nM.
